From US20210147573A1 (DENALI THERAPEUTICS, published 2021) come the findings set out here.

In data set [1] the target is HA-Rab10 (N-terminal HA-tagged Rab10 overexpressed in HEK293T cells; not phosphorylated / LRRK2 inhibitor A-treated lysate) (UniProt P61026).
The target in data set [2] is mouse Rab10 (endogenous, brain and kidney) (mouse) (UniProt P61027). The data set is described as follows: cell-based or functional assay.
Data set [3] has as its target mouse Rab10 (endogenous, brain and kidney) (UniProt P61027).
For data set [4], the target named is T1, HA-Rab8a phosphorylated at T72 (overexpressed with LRRK2 in HEK293T cells, DMSO-treated lysate) (UniProt P61006 1-204, phosphothreonine at Thr72 (numbered with reference to SEQ ID NO:124)).
T1 construct: mature; In cell lysate of HEK293T co-transfected with FLAG-LRRK2 or FLAG-LRRK2-R1441C; also called pT72-Rab8a; phospho-Rab8a; not shown: N-terminal HA (hemagglutinin) tag
T1 sequence (looked up): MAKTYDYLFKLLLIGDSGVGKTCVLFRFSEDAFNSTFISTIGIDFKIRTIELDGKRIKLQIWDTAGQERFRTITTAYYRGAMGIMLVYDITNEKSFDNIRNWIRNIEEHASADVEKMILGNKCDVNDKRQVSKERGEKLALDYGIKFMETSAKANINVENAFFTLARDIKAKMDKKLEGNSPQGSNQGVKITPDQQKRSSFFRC
In words: sandwich ELISA screening assay; OD ratio of DMSO lysate to LRRK2 inhibitor A lysate. On the procedure:
(§1) 96-well ELISA plates were coated with 10 μg/ml anti-rabbit IgG (Millipore) overnight at 4° C. Plates were washed with TBST (Tris Buffered Saline with Tween 20), and blocked with 2% BSA. Hybridoma supernatants were added in different dilutions, and incubated at room temperature for 2 hours. After TBST wash, cell lysates were then added at different protein concentration (0.08 mg/ml or 0.8 mg/ml). […] HRP conjugated anti-HA antibody (1:5000, CST #2999) was used for detection. TMB substrate was added and developed. Absorbance (OD) was measured at 650 nm using a plate reader.
For orientation: An ELISA detects its analyte on a solid surface through an enzyme-linked reagent.

In data set [5] the target is T2, HA-Rab8a (N-terminal HA-tagged full-length Rab8a overexpressed in HEK293T cells); not phosphorylated / LRRK2 … (UniProt P61006 1-204).
T2 construct: mature; also called overexpressed Rab8a protein; not shown: N-terminal HA (hemagglutinin) tag
T2 sequence (looked up): T1 sequence (looked up)
On the procedure:
as §1

The target in data set [6] is endogenous phosphorylated human Rab8a protein (pT72-Rab8a) (human) (UniProt P61006). In words: western blot, human PBMC; band intensity normalized to actin; mean ± SEM. (In general: Immunoblotting shows a protein as a band on a membrane.)
The target of data set [7] is T1, HA-Rab8a phosphorylated at T72 ….
For data set [8], the target named is T3, endogenously expressed human Rab10 protein (total Rab10, A549 cell lysates) (human, UniProt P61026 1-200).
T3 construct: A549 is stated to be a human lung epithelial cell line
T3 sequence: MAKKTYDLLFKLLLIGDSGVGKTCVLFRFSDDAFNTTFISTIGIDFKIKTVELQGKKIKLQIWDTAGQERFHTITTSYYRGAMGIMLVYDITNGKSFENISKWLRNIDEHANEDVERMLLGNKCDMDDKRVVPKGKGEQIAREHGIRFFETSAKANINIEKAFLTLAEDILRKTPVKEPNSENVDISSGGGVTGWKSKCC
In words: sandwich ELISA with lysates of wild-type A549 cells, Rab10 KO A549 lysates as negative controls.

Data set [9] concerns the target T4, HA-Rab10 (N-terminal HA-tagged Rab10 overexpressed in HEK293T cells); not phosphorylated / LRRK2 inhibitor … (UniProt P61026 1-200).
T4 construct: mature; also called overexpressed Rab10 protein; not shown: N-terminal HA (hemagglutinin) tag
T4 sequence (looked up): T3 sequence
In words: sandwich ELISA with cell lysates; same screening and selection strategy used for subclone supernatants.

Data set [10] concerns the target T5, recombinant Rab10 protein (Abnova, H00010890-P01) (UniProt P61026 1-200).
T5 construct: Bought
T5 sequence (looked up): T3 sequence
The data set is described as follows: sandwich ELISA with recombinant Rab proteins; same screening and selection strategy used for subclone supernatants.

In the case of “LRRK2 variant G2019S (HEK293T expression)”, the “phosphorylation of Rab10 (pT73-Rab10 western blot signal normalized to total Rab10, against wild-type LRRK2)” value in [1] was “demonstrated significantly increased phosphorylation levels of Rab10”.
The molecule “G2019S-LRRK2 (BAC transgene in G2019S-Tg mice, Jackson Laboratories #018785)” had an increase in pT73-Rab10 level in brain and kidney of G2019S transgenic mice (western blot, normalized to actin) in [2] of 20 to 30%.
Take LRRK2 variant I2020T: the “phosphorylation of Rab10 (pT73-Rab10 western blot signal normalized to total Rab10, against wild-type LRRK2)” value in data set [1] is “demonstrated significantly increased phosphorylation levels of Rab10”.
As for LRRK2 variant G2385R, the “phosphorylation of Rab10 (pT73-Rab10 western blot signal normalized to total Rab10, against wild-type LRRK2)” value in data set [1] is “demonstrated significantly increased phosphorylation levels of Rab10”.
Consider LRRK2 variant R1441G, for which the “phosphorylation of Rab10 (pT73-Rab10 western blot signal normalized to total Rab10, against wild-type LRRK2)” value in data set [1] is “demonstrated significantly increased phosphorylation levels of Rab10”.
Regarding LRRK2 variant Y1699C, the “phosphorylation of Rab10 (pT73-Rab10 western blot signal normalized to total Rab10, against wild-type LRRK2)” value in [1] is on record as “demonstrated significantly increased phosphorylation levels of Rab10”.
Take “mouse LRRK2 (endogenous; absent in LRRK2 knockout mice, Jackson Lab #016121)”: in [3], the “reduction of pRab10 level in LRRK2 KO mouse kidney (western blot, normalized to actin)” value was “more than 90% reduction of pRab10 level” and the “reduction of pT73-Rab10 level in LRRK2 KO mouse brain (western blot, normalized to actin)” value is given as 30-40% reduction for pT73-Rab10 level.

B1: anti-pT72-Rab8a monoclonal antibody clone 170-1 (antibody, V domains shown)
VH: QSLEESGGDLVKPEGSPTLTCTASGFSFSSSYWICWVRQAPGKGLEWIACIYGGSSGTIYYASWAKGRFTISKTSSTTVTLQMTSLTAADTATYFCARRAAGGYGGRLDLWGQGTLVTVSS
VL: AQVMTQTPASVSAAVGGTVTINCQSSESVLNNNYLAWYQQKSGQPPKLLIWTASSLASGVPSRFSGSGSGTQFTLTISDVQCDDAATYYCAGGYYIGSDIFAFGGGTEVVVR
notes: Rabbit monoclonal; also called anti-phospho Rab8a clone 170-1
Turning to B1, the “Ratio (DMSO/LRRK2 inhibitor A)” value in data set [4] stood at 6.03. The “OD A650 (LRRK2 inhibitor A)” value in data set [5] amounted to 0.173 OD A650.

B2: anti-pT72-Rab8a monoclonal antibody clone 24-3 (antibody, V domains shown)
VH: QSVEESGGRLVTPGTPLTLTCTVSGFSLSSYYITWVRQAPGKGREWLGIMNAGTTVHYANWVKGRFAISKTSTTVDLKITSPTTEDTATYFCARARNSVWMDIWGPGTLVTVSL
VL: AAVLTQTPSPVSGAVGGSVTVNCQSDKSVYRDNLAWYQQKPGQPPKLLIYKASTLASGVPSRFRGSGAGTQFTLTISDVQCDDAATYFCAGGYSSDSDTAFGGGTEVVVK
notes: Rabbit monoclonal; also called anti-phospho Rab8a clone 24-3
Consider B2, for which the “Ratio (DMSO/LRRK2 inhibitor A)” value in [4] was 5.19. The “OD A650 (LRRK2 inhibitor A)” value in data set [5] worked out at 0.286 OD A650.

B3: anti-pT72-Rab8a monoclonal antibody clone 20 (antibody, V domains shown)
VH: QSVEESGGRLVTPGTPLTLTCTVSGFSLSSYAMGWVRQAPGEGLEYFGIINTGGSAYYTNWAKGRFTISRTSTTVHLKITSPTTEDTATYFCARIAGDTRYYGMDPWGPGTLVTVSS
VL: AAVLTQTPSPVSAAVGGTVSISCQSSKSVRNNNYLAWYQQKPGQPPKLLIYGASTLASGVPSRFKGSGSGTQFTLTISDVQCDDAATYYCAGGYDGGSDDAFGGGTEVVVK
notes: Rabbit monoclonal; also called anti-phospho Rab8a clone 20; anti-phosphorylated T72-Rab8a monoclonal antibody (clone 20)
For B3, the Ratio of DMSO/LRRK2 inhibitor A in data set [6] came to 3.5. In data set [4], the Ratio (DMSO/LRRK2 inhibitor A) worked out at 8.35. The molecule further returned an OD A650 (DMSO) in [7] of 0.827 OD A650. The “OD A650 (LRRK2 inhibitor A)” value in data set [5] worked out at 0.099 OD A650.

B4: anti-total Rab10 monoclonal antibody Clone 10-3 (antibody, V domains shown)
VH: QSVEESGGRLVTPGTPLTLTCTASGFSLSSYYMNWVRQAPGKGLEWIGFISSGGRTYYANWAKGRFTISKTSTTVDLKITSPTTEDMATYFCARAIYSSGNSAMAIWGPGTLVTVSL
VL: AQVLTQTPSSVSAAVGGTVTISCQASQSVYDNSNLAWYQQKPGQPPELLIYYTSTLASGVPSRFSGSGSGTQFTLTISGVQCDDAAIYYCLGAFTCSSGDCNVFGGGTEVVVK
notes: Rabbit monoclonal from rabbit E8473 (Peptide A immunization); hybridoma supernatant; also called anti-total Rab10 clone 10-3
Take B4: the binding result in data set [8], in data set [9] and in data set [10] was “binds” throughout.
